From patent publication US20200392236A1 (JUNO THERAPEUTICS, published 2020)
Blank lines part the entries; values can stand above or below the binder they belong to.

Legend:
[1] = molecular target: T1, human BCMA (B-cell maturation antigen) on cells (human, UniProt Q02223 1-184); assay: flow cytometry on hBCMA-expressing HEK293 cells
T1 construct: whole, on cells; also called hBCMA; hBCMA/HEK293 cell line
T1 sequence (looked up): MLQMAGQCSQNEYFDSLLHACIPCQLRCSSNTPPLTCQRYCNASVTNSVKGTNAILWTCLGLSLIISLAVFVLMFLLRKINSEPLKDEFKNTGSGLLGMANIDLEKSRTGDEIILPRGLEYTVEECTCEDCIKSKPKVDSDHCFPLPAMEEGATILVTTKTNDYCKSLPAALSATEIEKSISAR

[2] = molecular target: T2, human BCMA amino acid residues 1-54 (linear and conformational CLIPS peptide libraries) (human, UniProt Q02223 1-54); assay: CLIPS peptide array ELISA
T2 sequence: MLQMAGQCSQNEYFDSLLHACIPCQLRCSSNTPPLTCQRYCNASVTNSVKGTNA
Method: Epitopes recognized, e.g., specifically bound to, by exemplary anti-BCMA scFv clones (BCMA-1, BCMA-5, BCMA-9, BCMA-23, BCMA-25, BCMA-26, BCMA-52 and BCMA-55 anti-BCMA scFvs), were assessed using full discontinuous epitope mapping by Chemical Linkage of Peptides onto Scaffolds (CLIPS; Pepscan Presto BV, Lelystad, The Netherlands; see, e.g., Timmerman et al., (2007) J. Mol. Recognit. 20: 283-329). Mapping was carried out using anti-BCMA scFv clones, such as those fused with mouse Fc (scFv-mFc).
Linear and conformational peptide libraries of amino acid residues 1-54 of human BCMA (set forth as amino acid residues 1-54 of SEQ ID NO:367) were generated based on a combinatorial matrix design. Linear peptides and structural mimetics including single loop, α-helix, β-turn, combinatorial and linear disulfide bridge mimics, and discontinuous epitope mimics were used, along with positive and negative control peptides, on an amino-functionalized solid support.
Affinities for binding to the peptides in the epitope library were determined using ELISA. The peptide arrays were incubated with a solution containing the scFv overnight at 4° C. Affinity information was used in iterative screens to define the sequence and conformation of epitopes. Heat maps of affinity information for two or more loops were generated.

- binding result [2]: binds
B2: BCMA-52-scFv-mFc (Fc fusion)
chain: SYELTQPPSASGTPGQRVTMSCSGTSSNIGSHSVNWYQQLPGTAPKLLIYTNNQRPSGVPDRFSGSKSGTSASLAISGLQSEDEADYYCAAWDGSLNGLVFGGGTKLTVLGSRGGGGSGGGGSGGGGSLEMAEVQLVQSGAEVKKPGESLKISCKGSGYSFTSYWIGWVRQMPGKGLEWMGIIYPGDSDTRYSPSFQGHVTISADKSISTAYLQWSSLKASDTAMYYCARYSGSFDNWGQGTLVTVSS
notes: scFv fused with mouse Fc; The order scFv then Fc follows the label; also called BCMA-52 anti-BCMA scFv; not shown: mouse Fc (mFc)

- binding result [2]: binds
B3: BCMA-55-scFv-mFc (Fc fusion)
chain: QSALTQPASVSASPGQSIAISCTGTSSDVGWYQQHPGKAPKLMIYEDSKRPSGVSNRFSGSKSGNTASLTISGLQAEDEADYYCSSNTRSSTLVFGGGTKLTVLGSRGGGGSGGGGSGGGGSLEMAEVQLVQSGAEMKKPGASLKLSCKASGYTFIDYYVYWMRQAPGQGLESMGWINPNSGGTNYAQKFQGRVTMTRDTSISTAYMELSRLRSDDTAMYYCARSQRDGYMDYWGQGTLVTVSS
notes: scFv fused with mouse Fc; The order scFv then Fc follows the label; also called BCMA-55 anti-BCMA scFv; not shown: mouse Fc (mFc)

The next lines start with the binder.

B1: BCMA-16 anti-BCMA scFv (scFv)
scFv: EVQLVQSGPEVKKPGTSVKVSCKASGFTFTSSAMQWVRQARGQRLEWIGWIVVGSGNTNYAQKFQERVTITRDMSTSTAYMELSSLRSEDTAVYYCAAAPYYDILTGYYLWGQGTLVTVSSGGGGSGGGGSGGGGSQSALTQPPSASGTPGQRVTISCSGSGSNIGSNDVSWYQQIPGTAPKLLIYWNDQRPSGVPDRFSGSKSGTSASLAISGLQSEDEADYYCASWDDSLSGWVFGGGTKLTVL
notes: VH-(G4S)3-VL scFv
- binding result [1]: no binding

B4: BCMA-26 anti-BCMA scFv (scFv)
scFv: EVQLVESGGGLVKPGGSLRLSCAASGFTFSDYYMSWIRQAPGKGLEWVSYISSSGSTIYYADSVKGRFTISRDNAKNSLYLQMNSLRAEDTAVYYCAKVDGPPSFDIWGQGTMVTVSSGGGGSGGGGSGGGGSSYVLTQPPSVSVAPGQTARITCGANNIGSKSVHWYQQKPGQAPMLVVYDDDDRPSGIPERFSGSNSGNTATLTISGVEAGDEADYFCHLWDRSRDHYVFGTGTKLTVL
notes: VH-(G4S)3-VL scFv
- binding result [2]: binds
